Measurements published in the supplement of paper PMC7877785.
± gives the uncertainty stated by the source.

Assay: self-splicing fitness, log relative to wild type (ln ratio); higher = more splicing; Tetrahymena group I intron in knt gene, E. coli kanamycin selection, DiMSum; sequences stand for … in CUCUCU…GGAGGGAAAAGUUAUCAGGCAUGCACCUGGUAGCUAGUCUUUAAACCAAUAGAUUGCAUCGGUUUAAAAGGCAAGACCGUCAAAUUGCGGGAAAGGGGUCAACAGCCGUUCAGUACCAAGUCUCAGGGGAAACUUUGAGAUGGCCUUGCAAAGGGUAUGGUAAUAAGCUGACGGACAUGGUCCUAACCACGCAGCCAAGUCCUAAGUCAACAGAUCUUCUGUUGAUAUGGAUGCAGUUCACAGACUAAAUGUCGGUCGGGGAAGAUGUAUUCUUCUCAUAAGAUAUAGUCGGACCUCUCCUUAAUGGGAGCUAGCGGAUGAAGUGAUGCAACACUGGAGCCGCUGGGAACUAAUUUGUAUGCGAAAGUAUAUUGAUUAGUUUUGGAGUACUCGUGGUCG
Procedure, shortened: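 The eight P1ex-region nucleotides of an intron in the knt kanamycin-resistance gene on pET-22b(+) were all randomised and the library put into E. coli BL21(DE3). Six replicate transformations were grown overnight at 37°C or 30°C on LB agar with or without 25 μg/mL kanamycin, together with 100 μg/mL carbenicillin, 50 μM IPTG and 0.2% rhamnose. Colonies were pooled and amplicon-sequenced on an Illumina HiSeq 2500. Fitness from DiMSum is the error-weighted combination of wild-type-normalised replicate fold changes, kanamycin over none.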

Row | Sequence | self-splicing fitness (ln) (30 °C) | self-splicing fitness (ln) (37 °C)
1 | UGCAAGCAAUAUUACGAUUU | -1.16 ± 0.09 | -1.05 ± 0.1
2 | UGCAAGCAAUAUUACGCAAG | -2.59 ± 0.17 | -3.02 ± 0.32
3 | UGCAAGCAAUAUUACGCACU | -2.92 ± 0.13 | -1.28 ± 0.1
4 | UGCAAGCAAUAUUACGCAUU | -4.37 ± 0.27 | -3.61 ± 0.26
5 | UGCAAGCAAUAUUACGCGGA | -2.23 ± 0.12 | -0.795 ± 0.12
6 | UGCAAGCAAUAUUACGCUUA | -1.2 ± 0.092 | -0.639 ± 0.092
7 | UGCAAGCAAUAUUACGGAAA | -1.82 ± 0.17 | -2.45 ± 0.22
8 | UGCAAGCAAUAUUACGGCAU | -3.05 ± 0.29 | -2.1 ± 0.19
9 | UGCAAGCAAUAUUACGGCCG | -0.266 ± 0.075 | 0.134 ± 0.099
10 | UGCAAGCAAUAUUACGGCGA | -0.0647 ± 0.094 | -0.21 ± 0.11
11 | UGCAAGCAAUAUUACGGGGA | -3.21 ± 0.33 | -1.32 ± 0.15
12 | UGCAAGCAAUAUUACGGGGU | -3.13 ± 0.15 | -2.75 ± 0.14
13 | UGCAAGCAAUAUUACGGGUA | -0.497 ± 0.084 | 0.0384 ± 0.095
14 | UGCAAGCAAUAUUACGGUAC | -4.35 ± 0.39 | -2.38 ± 0.21
15 | UGCAAGCAAUAUUACGGUCA | 0.0812 ± 0.064 | -0.169 ± 0.065
16 | UGCAAGCAAUAUUACGUAGA | -1.35 ± 0.072 | -0.944 ± 0.1
17 | UGCAAGCAAUAUUACGUCGC | -2.86 ± 0.43 | -2.36 ± 0.49
18 | UGCAAGCAAUAUUACGUCGG | -2.03 ± 0.086 | -0.943 ± 0.1
19 | UGCAAGCAAUAUUACGUCUG | -1.34 ± 0.08 | -0.432 ± 0.1
20 | UGCAAGCAAUAUUACGUGAU | -3.33 ± 0.082 | -2.13 ± 0.093
21 | UGCAAGCAAUAUUACGUGCG | -2.86 ± 0.18 | -1.94 ± 0.18
22 | UGCAAGCAAUAUUACGUGUG | -2.69 ± 0.098 | -2.81 ± 0.14
23 | UGCAAGCAAUAUUACGUUAC | -2.91 ± 0.27 | -2.41 ± 0.24
24 | UGCCAGCAAUAUUACGAAGG | -3.59 ± 0.27 | -2.6 ± 0.3
25 | UGCCAGCAAUAUUACGAUAC | -3.95 ± 0.25 | -2.29 ± 0.25

Row | Sequence | self-splicing fitness (ln) (30 °C) | self-splicing fitness (ln) (37 °C)
26 | UGCCAGCAAUAUUACGAUUU | -4.1 ± 0.23 | -1.54 ± 0.14
27 | UGCCAGCAAUAUUACGCCAU | -3.3 ± 0.28 | -2.48 ± 0.26
28 | UGCCAGCAAUAUUACGCCCC | -2.29 ± 0.26 | -1.44 ± 0.29
29 | UGCCAGCAAUAUUACGCCUU | -1.93 ± 0.13 | -2.29 ± 0.18
30 | UGCCAGCAAUAUUACGGAAC | -3.49 ± 0.34 | 
31 | UGCCAGCAAUAUUACGGCCG | -0.659 ± 0.073 | -0.389 ± 0.092
32 | UGCCAGCAAUAUUACGGUGU | -2.53 ± 0.11 | -2.7 ± 0.19
33 | UGCCAGCAAUAUUACGGUUG | -1.94 ± 0.096 | -0.692 ± 0.11
34 | UGCCAGCAAUAUUACGUCCG | -0.88 ± 0.073 | 0.0267 ± 0.11
35 | UGCCAGCAAUAUUACGUGCG | -1.34 ± 0.077 | -1.13 ± 0.091
36 | UGCCAGCAAUAUUACGUGGG | -3.88 ± 0.13 | -2.74 ± 0.14
37 | UGCCAGCAAUAUUACGUUGU | -3.21 ± 0.12 | -2.86 ± 0.18
38 | UGCCAGCAAUAUUACGUUUC | -4.47 ± 0.28 | -1.17 ± 0.16
39 | UGCGAGCAAUAUUACGAGGG | -2.1 ± 0.13 | -2.3 ± 0.17
40 | UGCGAGCAAUAUUACGCACC | -3.32 ± 0.31 | -2.72 ± 0.42
41 | UGCGAGCAAUAUUACGCGAG | -3.16 ± 0.23 | -1.79 ± 0.25
42 | UGCGAGCAAUAUUACGCGAU | -2.39 ± 0.42 | 
43 | UGCGAGCAAUAUUACGCGCC | -2.45 ± 0.26 | -1.29 ± 0.27
44 | UGCGAGCAAUAUUACGCGGU | -2.46 ± 0.17 | -2.43 ± 0.19
45 | UGCGAGCAAUAUUACGCUGA | -2.35 ± 0.27 | -2.28 ± 0.27
46 | UGCGAGCAAUAUUACGGCAA | -2.3 ± 0.4 | -0.0535 ± 0.27
47 | UGCGAGCAAUAUUACGGGUA | -1.19 ± 0.18 | -0.698 ± 0.21
48 | UGCGAGCAAUAUUACGGUGA | -2.28 ± 0.18 | -1.49 ± 0.16
49 | UGCGAGCAAUAUUACGGUGU | -4.19 ± 0.23 | -3.16 ± 0.4
50 | UGCGAGCAAUAUUACGUCCA | -0.227 ± 0.25 | -0.499 ± 0.29

Row | Sequence | self-splicing fitness (ln) (30 °C) | self-splicing fitness (ln) (37 °C)
51 | UGCGAGCAAUAUUACGUGAG | -4.57 ± 0.36 | -2.63 ± 0.18
52 | UGCGAGCAAUAUUACGUUGG |  | -1.27 ± 0.26
53 | UGCUAGCAAUAUUACGAAAG | -2.06 ± 0.21 | -0.114 ± 0.19
54 | UGCUAGCAAUAUUACGAACA | -0.29 ± 0.12 | 0.199 ± 0.13
55 | UGCUAGCAAUAUUACGACAA | -1.15 ± 0.13 | -0.207 ± 0.14
56 | UGCUAGCAAUAUUACGACAU | -2.027 ± 0.016 | -1.05 ± 0.034
57 | UGCUAGCAAUAUUACGACCA | 0.141 ± 0.17 | 0.148 ± 0.27
58 | UGCUAGCAAUAUUACGACUC | -2.59 ± 0.27 | -0.141 ± 0.2
59 | UGCUAGCAAUAUUACGAGGC | -2.55 ± 0.19 | -1.89 ± 0.34
60 | UGCUAGCAAUAUUACGCAGC | -4.35 ± 0.36 | -2.1 ± 0.28
61 | UGCUAGCAAUAUUACGCCGA | -2.48 ± 0.25 | -1 ± 0.19
62 | UGCUAGCAAUAUUACGCCUU | -2.68 ± 0.23 | 0.255 ± 0.17
63 | UGCUAGCAAUAUUACGCGUC | -3.06 ± 0.27 | -2.23 ± 0.27
64 | UGCUAGCAAUAUUACGCUCU | -1.63 ± 0.13 | -0.156 ± 0.15
65 | UGCUAGCAAUAUUACGCUGU | -3.58 ± 0.22 | -2.38 ± 0.27
66 | UGCUAGCAAUAUUACGCUUU | -2.16 ± 0.14 | -2.22 ± 0.19
67 | UGCUAGCAAUAUUACGGAGC |  | -1.42 ± 0.41
68 | UGCUAGCAAUAUUACGGAGG | -2.23 ± 0.14 | -1.13 ± 0.13
69 | UGCUAGCAAUAUUACGGCGC | -3.41 ± 0.37 | 1.38 ± 0.48
70 | UGCUAGCAAUAUUACGGGGG | -0.837 ± 0.13 | -2.32 ± 0.32
71 | UGCUAGCAAUAUUACGGGUA | -0.992 ± 0.14 | -0.151 ± 0.12
72 | UGCUAGCAAUAUUACGGGUU | -2.39 ± 0.14 | -1.33 ± 0.14
73 | UGCUAGCAAUAUUACGGUUG | -0.971 ± 0.06 | -0.318 ± 0.082
74 | UGCUAGCAAUAUUACGGUUU | -1.27 ± 0.062 | -0.216 ± 0.073
75 | UGCUAGCAAUAUUACGUCAG | -2.36 ± 0.12 | -1.33 ± 0.12

Row | Sequence | self-splicing fitness (ln) (30 °C) | self-splicing fitness (ln) (37 °C)
76 | UGCUAGCAAUAUUACGUUAC |  | -1.91 ± 0.23
77 | UGCUAGCAAUAUUACGUUGC | -3.53 ± 0.34 | -1.77 ± 0.23
78 | UGCUAGCAAUAUUACGUUUU | -3.29 ± 0.18 | -1.94 ± 0.14
79 | UGGAAGCAAUAUUACGAAAA | -1.93 ± 0.22 | -1.13 ± 0.19
80 | UGGAAGCAAUAUUACGAAUG | -0.927 ± 0.11 | -0.211 ± 0.12
81 | UGGAAGCAAUAUUACGACUA | -0.154 ± 0.074 | 0.331 ± 0.11
82 | UGGAAGCAAUAUUACGAUCG | 0.288 ± 0.14 | 0.382 ± 0.15
83 | UGGAAGCAAUAUUACGCCUG | -0.491 ± 0.083 | -0.15 ± 0.099
84 | UGGAAGCAAUAUUACGCGAG | -1.26 ± 0.19 | 0.167 ± 0.16
85 | UGGAAGCAAUAUUACGCGCA | -0.534 ± 0.13 | 0.365 ± 0.13
86 | UGGAAGCAAUAUUACGCGUA | -1.21 ± 0.11 | -0.131 ± 0.15
87 | UGGAAGCAAUAUUACGCUAC | -4.5 ± 0.34 | -2.24 ± 0.21
88 | UGGAAGCAAUAUUACGCUCA | -0.562 ± 0.11 | -0.00417 ± 0.13
89 | UGGAAGCAAUAUUACGGCCU | -0.816 ± 0.11 | -0.639 ± 0.13
90 | UGGAAGCAAUAUUACGGCGG | -0.545 ± 0.08 | -0.13 ± 0.1
91 | UGGAAGCAAUAUUACGGCUA | -0.499 ± 0.14 | -0.0289 ± 0.23
92 | UGGAAGCAAUAUUACGGUGU | -1.46 ± 0.14 | -3.33 ± 0.27
93 | UGGAAGCAAUAUUACGUAGA | -2.06 ± 0.13 | -1.01 ± 0.13
94 | UGGAAGCAAUAUUACGUCAC |  | -1.54 ± 0.24
95 | UGGAAGCAAUAUUACGUGAC | -2.76 ± 0.34 | -1.75 ± 0.4
96 | UGGAAGCAAUAUUACGUGGU | -3.53 ± 0.49 | -2.25 ± 0.3
97 | UGGAAGCAAUAUUACGUUCU | -3.42 ± 0.25 | -1.31 ± 0.17
